In assay [1] the target is T1, urokinase (UK) (Homo sapiens, UniProt P00749). Briefly: Ki of inhibitors against urokinase, fractional enzyme activity assay (Empie and Laskowski) with chromogenic substrate S-2288. The format is biochemical. The arrangement: purchased Abbott Pharmaceuticals. The method, then:
Fractional enzyme activities for each inhibitor-UK interaction of the above discussed inhibitors were determined by the assay method of Empie and Laskowski (Empie, M. W. et al., Biochem. 21:2274-2284 (1982)), as adapted from Green and Work (Green, N. M. et al., Biochem. J. 54:347-352 (1953)). The concentration of UK used for these reactions was 35 nM. The reactions were carried out in Buffer C. The concentration of the chromogenic substrate used with UK in these assays (S-2288, KabiGen) was […], which is one tenth of the Km of the substrate for UK. Km was determined by a Michaelis-Menten analysis, using a 100-fold range of substrate concentration in Buffer C, and determined to be 4×10^-4 M. Ki values were calculated as the slope of a plot of [I]o /(1-a) vs. 1/a ("a" represents residual enzyme activity) using a variation of the formulas derived by Henderson (Pratt, C. W. et al., Biochem. 26:2855-2863 (1987)). […] These five mutants include the four detailed above(88, 89, 80, AND 91), and also a mutant with arginine at the P1 site of OM3TKY (P1-Arg). […] "ND" means not determined.
Ki values for the wild-type and mutant inhibitors versus urokinase were also determined by non-linear regression of the following equation: [formula]
The non-linear regression was done using the program Enzfitter, by Robin Leatherbarrow. […] Enzyme and inhibitor concentrations used were determined as mentioned above.

Assay [2] addresses T1, urokinase (UK). Conditions: from Turpeinen et al. (PSTI), Christensen et al. (PAI-2); serpin Ki not functionally comparable to reversible inhibitors; read-out: Ki (nM) against UK, values obtained from the literature; cited from earlier work.

Like-named read-outs stand apart in the source and are kept apart here. Where no end group is shown, it is not given here.

Take “P1-Arg: mutant with arginine at the P1 site of OM3TKY (VDCSEYPKPACTREYRPLCGSDNKTYGNKCNFCNAVVESNGTLTLSHFGKC)”: the Ki (commonly the dissociation constant of the complex between target and ligand, obtained from inhibition or displacement) in the assay with urokinase (UK) [1] (non-linear regression with Enzfitter, read-out: Ki (nM), Ki VALUES OBTAINED BY NON-LINEAR REGRESSION FOR INHIBITORS AGAINST UK) was 1790 ± 415 nM. The “inhibitory activity against UK” value with urokinase (UK) [1] (statement on Table 5) is “virtually no inhibitory activity”.

On to “PSTI: native Pancreatic Secretory Trypsin Inhibitor, a Kazal-type inhibitor from humans (DSLGREAKCYNELNGCTKIYDPVCGTDGNTYPNECVLCFENRKRQTSILIQKSGPC; ends and bridges not checked; cysteine pairing not given here; UniProt P00995 24-79, looked up) [reference compound]”, for which the Ki with urokinase (UK) [2] was 300 nM.

Source of the values: patent publication US5550213A, “Inhibitors of urokinase plasminogen activator” (Rutgers, The State University of New Jersey, priority 1993, dated 1996).
